Target: Human properdin (factor P) (human) (UniProt P27918)
Experiment: SPR; FP immobilised by amine coupling to 79.55 RU; FXI or FXIa injected by OneStep gradient, maximum 50 nM, 30 uL/min, dissociation 300 s; Pall/ForteBio Pioneer; run in triplicate

Chain of UniProt P27918 (P27918 28-469): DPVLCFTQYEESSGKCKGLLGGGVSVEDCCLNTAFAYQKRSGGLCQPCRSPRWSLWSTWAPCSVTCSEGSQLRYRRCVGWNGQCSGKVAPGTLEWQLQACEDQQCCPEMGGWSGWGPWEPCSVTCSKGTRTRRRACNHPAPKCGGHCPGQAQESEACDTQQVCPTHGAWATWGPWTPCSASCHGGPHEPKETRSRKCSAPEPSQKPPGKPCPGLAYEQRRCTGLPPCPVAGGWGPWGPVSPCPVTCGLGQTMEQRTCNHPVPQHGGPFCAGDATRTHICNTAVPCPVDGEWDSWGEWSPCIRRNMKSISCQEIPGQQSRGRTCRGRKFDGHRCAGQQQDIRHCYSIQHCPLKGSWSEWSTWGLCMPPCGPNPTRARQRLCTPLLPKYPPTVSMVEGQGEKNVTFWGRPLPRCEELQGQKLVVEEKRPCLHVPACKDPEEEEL

| Kd | Substance |
| --- | --- |
| 0.35 nM | Human activated coagulation factor XI (preactivated by FXIIa) (enzyme) |
| 16.1 nM | Human coagulation factor XI zymogen (natural protein) |

Reference: paper PMC9130567
